Experimental data taken from article PMC3462767, “Engineering a Disulfide Bond in the Lid Hinge Region of Rhizopus chinensis Lipase: Increased Thermostability and Altered Acyl Chain Length Specificity” (PLoS ONE, 2012).

Tests used:
[1] = tested on: CC(=O)Oc1ccc([N+](=O)[O-])cc1; assay: purified protein; conditions: free enzyme; emulsified substrate
[2] = tested on: CCCCCCCCCCCCCCCC(=O)Oc1ccc([N+](=O)[O-])cc1; assay: purified protein; conditions: free enzyme; emulsified substrate
[3] = tested on: CC(=O)Oc1ccc([N+](=O)[O-])cc1; assay: p-nitrophenol release, Lineweaver-Burk; format: biochemical, Rhizopus microsporus; conditions: RCLCYS, engineered disulfide C95-C214; free enzyme; emulsified substrate
Description: (§1) p-nitrophenol release, Lineweaver-Burk on RCL (R. chinensis lipase)

[4] = tested on: CCCCCCCCCCCCCCCC(=O)Oc1ccc([N+](=O)[O-])cc1; assay: p-nitrophenol release, Lineweaver-Burk; format: biochemical, Rhizopus microsporus; conditions: RCLCYS, engineered disulfide C95-C214; free enzyme; emulsified substrate
Description: as §1

Substance	Km [1] [µM]	kcat [1] [s⁻¹]	Km [2] [µM]	kcat [2] [s⁻¹]	Km [3] [µM]	kcat [3] [s⁻¹]	Km [4] [µM]	kcat [4] [s⁻¹]
RCL (R. chinensis lipase) (Rhizopus microsporus var. chinensis)	295 ± 6	17.7 ± 0.2	304 ± 7	18.9 ± 0.4				
RCL (R. chinensis lipase) (Rhizopus microsporus var. chinensis; F215C/F334C)					298 ± 8	17.3 ± 0.2	450 ± 6	18.4 ± 0.2
